Laboratory results as given in the Human Domainome abundance scans (Beltran et al. 2025).

B1: RNA-binding E3 ubiquitin-protein ligase MEX3C, residues 325 to 391; numbered along this chain, Q5U5Q3 (parent)
chain: GQTTVQVRVPYRVVGLVVGPKGATIKRIQQQTHTYIVTPSRDKEPVFEVTGMPENVDRAREEIEMHI
B2: Histone-lysine N-methyltransferase 2A, residues 1148 to 1194; numbered along this chain, Q03164 (parent)
chain: KGRRSRRCGQCPGCQVPEDCGVCTNCLDKPKFGGRNIKKQCCKMRKC

Variants of: B1
Assay: abundance fitness (aPCA) (normalised: wild type 0, dead -1); higher = more abundant; growth selection in yeast, the domain comes from the species named
Settings: Homo sapiens

Abundance fitness, by site and new letter:
T4: V -0.477, E -1.06, N -0.812, R -0.425, K -0.414, C -0.718, G -0.646, S -0.757, D -0.631, F -0.881, H -0.38, A -0.523, I -0.622, W -0.832, M -0.751, L -0.756
V13: G -0.153, W -0.098, Y -0.073, E -0.334, H -0.041, C -0.024, A -0.029, F 0.022, D 0.057, Q 0.169, L 0.114, M 0.075, S 0.127, N -0.207, P -0.809, I -0.366, R -0.25, K 0.216, T -0.006
V7: G -0.809, Q -0.603, R -0.851, S -0.516, A -0.731, N -0.987, F -0.124, D -0.571, C -0.769, I 0.092, Y -0.717, H -0.603, P -0.567, W -0.92, E -0.39, K -0.47, T -0.802, L -0.537
Q6: T -0.247, Y 0.269, W -0.513, E -0.218, P -0.3, H -0.099, C -0.028, G -0.16, S -0.056, V 0.071, D -0.657, R 0.159, M -0.151, A -0.1, L -0.022
R12: P 0.054, N 0.141, K 0.063, I -0.373, Q 0.013, T -0.201, G 0.143, M -0.401, A 0.001, Y -0.064, S 0.175, D 0.159, F -0.11, V -0.652, H -0.189, L -0.588, E 0.136
V5: G -0.387, A -0.34, I 0.2, W -0.83, L -0.016, F -0.363, C -0.475, H -0.822, Q -0.294, T -0.478, S -0.74, M -0.452, R -0.336, D -1.05, E -0.667, K -0.18
V14: Y -0.51, C -0.89, P -0.703, Q -0.881, S -0.603, D -0.529, I 0.114, K -0.636, R -0.372, G -0.746, F -0.315, T -0.524, E -0.51, W -0.349, M -0.185
P10: K -0.563, S -0.793, I -0.634, G -0.767, V -0.707, Q -0.754, L -0.693, A -0.708, D -0.372, F -1.1, T -0.611, W -0.841, H -0.825, C -0.655, M -0.885
Y11: Q 0.233, P 0.128, A 0.171, E 0.402, R 0.262, K 0.369, L -0.029, N -0.014, M 0.154, F -0.514, G -0.013, H 0.17, S 0.236, W 0.136
T3: D -0.45, V 0.008, G -0.519, C -0.256, E -0.385, I 0.306, A -0.799, Y -0.296, M -0.556, Q -0.258, P -0.787, W -1.1, S -0.309, L -0.163, H -0.252, N -0.672
G1: R -0.022, A -0.27, S -0.094, D -0.136, V -0.283
Q2: D -0.155, F 0.057, R -0.208, W -0.302, E -0.022, Y -0.047, N -0.061, C -0.148, P -0.181, S -0.356, M -0.001, I -0.174, G -0.403, K 0.145, V -0.069, L 0.017, H 0.017, A -0.409
R8: A -0.608, Y -0.175, I -0.375, M -0.555, C -0.675, T -0.209, V -0.66, P -0.18, H -0.345, Q -0.683, F -0.666, D -0.666, S -0.377, N -0.971, W -0.382, G -0.763, E -0.52, L -0.601, K 0.038
V9: I -0.54, T -0.84, R -0.609, W -0.767, N -0.954, H -0.928, K -0.776, A -0.657, F -0.933, L -0.873, Q -0.993, E -0.733, G -0.551, M -0.641, D -0.834, P -0.825

Variants of: B2
Assay: as above
Settings: Homo sapiens

Abundance fitness, by site and new letter:
M44: G -0.251, T -0.283, W -0.151, S -0.335, N -0.253, R -0.023, V -0.213, H -0.181, Y -0.205, A -0.012, K -0.037, D -0.242, E 0.003, C -0.484, Q 0.037, I -0.021, P -0.659
C47: Y -0.967, A -0.695, R -0.925, P -0.789, F -0.52, T -0.884, D -0.347, S -0.619, W -0.527
R45: K -0.529, W -0.662, H -0.737, Q -0.52, A -0.659, D -0.411, S -0.349, M -0.308, L -0.527, T -0.597, V -0.492, Y -0.735, I -0.439, E -0.682, G -0.429, P -0.67
Q40: W -0.545, Y -0.493, V -0.042, T -0.234
C41: T -0.195, G 0.04, K -0.123, I 0.048, S -0.066, V 0.094, N 0.27, P 0.028, H 0.098, A -0.104, D 0.3, M 0.127, Q 0.119, R -0.014, W -0.095, L -0.241, F -0.095, Y -0.322
K43: L 0.07, Q -0.215, E 0.179, G -0.312, H 0.37, T 0.09, A -0.015, F -0.224, D 0.018, R -0.27, I 0.121, Y 0.046, W -0.12, P -0.85, M -0.031, V 0.108, S -0.112
C42: T -0.824, P -0.709, Y -0.792, L -0.651, F -0.647, V -0.813, Q -0.955, R -0.569, E -0.604, G -0.909, N -1, D -0.849, H -0.809, M -1.01, I -1, W -0.821, A -0.952
K46: F -0.21, Q 0.153, E 0.105, Y -0.128, M 0.074, R -0.205, N -0.728, P -0.341, D 0.231, W -0.31, G -0.145, C -0.17, H -0.02, V 0.039, S -0.12, A 0.206, I 0.356
